According to patent US20230075633A1:

Experiments:
human CEA (human) = human CEA (human) (UniProt P06731); test: cell-based or functional assay
human CD3 (human) [1] = target: human CD3 (human) (UniProt P07766); test: flow cytometry on Jurkat cells
human CD3 (human) [2] = target: human CD3 (human) (UniProt P07766); test: flow cytometry on human PBMC (ND 12)

Chain of human CEA (human) (P06731 35-702, form in doubt): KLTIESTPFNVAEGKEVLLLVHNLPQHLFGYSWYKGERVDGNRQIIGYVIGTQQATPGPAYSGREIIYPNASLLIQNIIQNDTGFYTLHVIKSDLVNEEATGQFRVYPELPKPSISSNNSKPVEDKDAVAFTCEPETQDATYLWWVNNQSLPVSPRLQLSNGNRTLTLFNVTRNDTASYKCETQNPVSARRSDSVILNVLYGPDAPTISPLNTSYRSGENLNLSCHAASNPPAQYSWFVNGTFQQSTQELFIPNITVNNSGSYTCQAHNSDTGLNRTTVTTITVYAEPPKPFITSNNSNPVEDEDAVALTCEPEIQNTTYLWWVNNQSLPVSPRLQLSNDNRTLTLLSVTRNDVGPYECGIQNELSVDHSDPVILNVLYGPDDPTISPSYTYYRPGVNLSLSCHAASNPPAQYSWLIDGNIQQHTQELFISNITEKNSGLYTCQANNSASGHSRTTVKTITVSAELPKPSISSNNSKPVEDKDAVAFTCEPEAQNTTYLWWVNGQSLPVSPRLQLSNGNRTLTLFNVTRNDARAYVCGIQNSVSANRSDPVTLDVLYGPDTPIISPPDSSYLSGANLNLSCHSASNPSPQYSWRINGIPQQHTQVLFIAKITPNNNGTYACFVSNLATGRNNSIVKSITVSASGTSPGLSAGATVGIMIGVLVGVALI
Chain of human CD3 (human) (P07766 23-207): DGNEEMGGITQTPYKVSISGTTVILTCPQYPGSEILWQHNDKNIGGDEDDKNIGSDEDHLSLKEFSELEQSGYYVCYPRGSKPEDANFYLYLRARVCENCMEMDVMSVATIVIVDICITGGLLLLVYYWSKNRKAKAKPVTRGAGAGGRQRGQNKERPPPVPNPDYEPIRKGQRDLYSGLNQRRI

cytolysis of LS174T cells by PBMC: EC50 (human CEA (human)): 0.005 nM
cytolysis of MKN-45 cells by PBMC, E/T 20:1, 48 h: EC50 against that of CEA/CD3OPT1a3b2b1 BsAb (human CEA (human)): 50 fold
cytolysis of MKN-45 cells by PBMC: EC50 (human CEA (human)): 0.001 nM
EC50 (human CD3 (human) [1]): 0.207 nM
EC50 (human CD3 (human) [2]): 0.34 nM
Substance: Roche CEA-TCB (bispecific antibody)
